Source: article PMC10164081

Legend:
[1] = target: purified Ric-8B (peptide-binding thermal shift assay) (mouse) (UniProt Q80XE1); assay: differential scanning fluorimetry
Gαolf (human) = Gαolf (human) (UniProt P38405)
Gαolf (human), sequence (P38405 whole entry): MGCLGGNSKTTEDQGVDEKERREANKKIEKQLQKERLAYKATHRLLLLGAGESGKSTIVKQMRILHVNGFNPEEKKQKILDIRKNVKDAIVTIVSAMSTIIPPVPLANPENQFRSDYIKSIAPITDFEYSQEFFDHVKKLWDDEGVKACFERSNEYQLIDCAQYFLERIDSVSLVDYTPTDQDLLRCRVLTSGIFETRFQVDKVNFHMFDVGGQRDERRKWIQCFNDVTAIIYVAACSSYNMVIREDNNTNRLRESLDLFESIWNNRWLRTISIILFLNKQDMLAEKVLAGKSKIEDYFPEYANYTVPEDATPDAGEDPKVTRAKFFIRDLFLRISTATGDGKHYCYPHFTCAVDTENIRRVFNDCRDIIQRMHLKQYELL

purified Ric-8B (peptide-binding thermal shift assay) (mouse), sequence (Q80XE1 1-483): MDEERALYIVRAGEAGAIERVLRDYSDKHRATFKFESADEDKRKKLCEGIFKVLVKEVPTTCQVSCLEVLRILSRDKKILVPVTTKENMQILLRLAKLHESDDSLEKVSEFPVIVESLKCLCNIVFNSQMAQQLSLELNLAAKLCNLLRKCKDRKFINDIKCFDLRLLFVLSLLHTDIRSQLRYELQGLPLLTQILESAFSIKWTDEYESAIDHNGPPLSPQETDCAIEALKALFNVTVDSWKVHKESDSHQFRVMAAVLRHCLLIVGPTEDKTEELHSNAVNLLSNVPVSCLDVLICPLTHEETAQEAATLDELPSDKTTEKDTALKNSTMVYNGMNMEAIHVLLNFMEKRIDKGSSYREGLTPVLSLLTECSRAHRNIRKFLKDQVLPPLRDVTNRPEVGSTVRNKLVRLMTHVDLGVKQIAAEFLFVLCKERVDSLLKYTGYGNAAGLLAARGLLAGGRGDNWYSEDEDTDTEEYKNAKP

Row | Substance | maximal thermal shift (ΔTm) [1] [°C] | folding of the Gαolf-RLuc sensor (luminescence) in RIC-8B knockout HEK293T cells (Gαolf (human)) [% decrease]
1 | Gαs C-term amidated peptide | 3.3 | 
2 | Ric-8B with its ARM7 loop replaced by that of Ric-8A |  | 10
